Data on five proteins can be found in article PMC2661964, “Mammalian Kinesin-3 Motors Are Dimeric In Vivo and Move by Processive Motility upon Release of Autoinhibition” (PLoS Biology, 2009).

Data set [1] concerns the molecule itself. The data set is described as follows: cross-linking; cytosolic extracts of rat brain and detergent extracts of murine cortical neurons, with or without DMP; SDS-PAGE, immunoblot with anti-KIF1A. In general terms: In western blotting, separated proteins are transferred to a membrane and probed.
Data set [2] deals with the molecule itself. The data set can be described thus: stepwise photobleaching of single molecules (TIRF microscopy); lysates of COS cells expressing 3xmCit-tagged constructs, in flow chambers with Cy5-microtubules, with AMPPNP; number of bleaching steps of 160–200 spots for each construct.

B1: endogenous KIF1A in murine cortical neurons (natural protein, UniProt P33173 1-1695, looked up)
chain: MAGASVKVAVRVRPFNSREMSRDSKCIIQMSGSTTTIVNPKQPKETPKSFSFDYSYWSHTSPEDINYASQKQVYRDIGEEMLQHAFEGYNVCIFAYGQTGAGKSYTMMGKQEKDQQGIIPQLCEDLFSRINDTTNDNMSYSVEVSYMEIYCERVRDLLNPKNKGNLRVREHPLLGPYVEDLSKLAVTSYNDIQDLMDSGNKPRTVAATNMNETSSRSHAVFNIIFTQKRHDAETNITTEKVSKISLVDLAGSERADSTGAKGTRLKEGANINKSLTTLGKVISALAEMDSGPNKNKKKKKTDFIPYRDSVLTWLLRENLGGNSRTAMVAALSPADINYDETLSTLRYADRAKQIRCNAIINEDPNNKLIRELKDEVTRLRDLLYAQGLGDITDMTNALVGMSPSSSLSALSSRAASVSSLHERILFAPGSEEAIERLKETEKIIAELNETWEEKLRRTEAIRMEREALLAEMGVAMREDGGTLGVFSPKKTPHLVNLNEDPLMSECLLYYIKDGVTRVGREDAERRQDIVLSGHFIKEEHCIFRSDSRGGGEAVVTLEPCEGADTYVNGKKVTEPSILRSGNRIIMGKSHVFRFNHPEQARQERERTPCAETPAEPVDWAFAQRELLEKQGIDMKQEMEQRLQELEDQYRREREEATYLLEQQRLDYESKLEALQKQMDSRYYPEVNEEEEEPEDEVQWTERECELALWAFRKWKWYQFTSLRDLLWGNAIFLKEANAISVELKKKVQFQFVLLTDTLYSPLPPDLLPPEAAKDRETRPFPRTIVAVEVQDQKNGATHYWTLEKLRQRLDLMREMYDRAAEVPSSVVEDCDNVVTGGDPFYDRFPWFRLVGRAFVYLSNLLYPVPLVHRVAIVSEKGEVKGFLRVAVQAISADEEAPDYGSGVRQSGTAKISFDDQHFEKFQSESCPVVGMSRSGTSQEELRIVEGQGQGADAGPSADEVNNNTCSAVPPEGLMDSPEKAALDGPLDTALDHLRLGSTFTFRVTVLQASSISAEYADIFCQFNFIHRHDEAFSTEPLKNTGRGPPLGFYHVQNIAVEVTKSFIEYIKSQPIVFEVFGHYQQHPFPPLCKDVLSPLRPSRRHFPRVMPLSKPVPATKLSTMTRPSPGPCHCKYDLLVYFEICELEANGDYIPAVVDHRGACMGTFLLHQGIQRRITVTLLHETGSHIRWKEVRELVVGRIRNTPETDEALIDPNILSLNILSSGYVHPAQDDRVFFGNDTRTFYQFEAAWDSSMHNSLLLNRVTPYREKIYMTLSAYIEMENCTQPAVITKDFCMVFYSRDAKLPASRSIRNLFGSGSLRATEGNRVTGVYELSLCHVADAGSPGMQRRRRRVLDTSVAYVRGEENLAGWRPRSDSLILDHQWELEKLSLLQEVEKTRHYLLLREKLETTQRPGPEVLSPASSEDSESRSSSGASSPLSAEGQPSPLEAPNERQRELAVKCLRLLMHTFNREYTHSHVCISASESKLSEMSVTLMRDPSMSPLGAATLTPSSTCPSLIEGRYGATDVRTPQPCSRPASPEPELLPELDSKKTPSPVRATETEKEPQRLLVPDIQEIRVSPIVSKKGYLHFLEPHTAGWAKRFVVVRRPYAYMYNSDKDTVERFVLNLSTAQVEYSEDQQAMLKTPNTFAVCTEHRGILLQANSDKDMHDWLYAFNPLLAGTIRSKLSRRRSAQMRV
notes: KIF1A, endogenous protein of murine cortical neurons; source: endogenous, detergent extract of murine cortical neurons
As usually defined, the stoichiometry N is the number of molecules, sites or subunits per partner or assembly. With B1, in data set [1], the “stoichiometry N” value was found to be 2.

B2: endogenous KIF1A in rat brain cytosol (natural protein, rat (endogenous in rat brain), UniProt F1M4A4 1-1707, looked up)
chain: MAGASVKVAVRVRPFNSREMSRDSKCIIQMSGSTTTIVNPKQPKETPKSFSFDYSYWSHTSPEDINYASQKQVYRDIGEEMLQHAFEGYNVCIFAYGQTGAGKSYTMMGKQEKDQQGIIPQLCEDLFSRINDTTNDNMSYSVEVSYMEIYCERVRDLLNPKNKGNLRVREHPLLGPYVEDLSKLAVTSYNDIQDLMDSGNKARTVAATNMNETSSRSHAVFNIIFTQKRHDAETNITTEKVSKISLVDLAGSERADSTGAKGTRLKEGANINKSLTTLGKVISALAEMDSGPNKNKKKKKTDFIPYRDSVLTWLLRENLGGNSRTAMVAALSPADINYDETLSTLRYADRAKQIRCNAIINEDPNNKLIRELKDEVTRLRDLLYAQGLGDITDTNTVPGGPKLTNALVGMSPSSSLSALSSRAASVSSLHERILFAPGSEEAIERLKETEKIIAELNETWEEKLRRTEAIRMEREALLAEMGVAMREDGGTLGVFSPKKTPHLVNLNEDPLMSECLLYYIKDGVTRVGREDAERRQDIVLSGHFIKEEHCIFRSDSRGGGEAVVTLEPCEGADTYVNGKKVTEPSILRSGNRIIMGKSHVFRFNHPEQARQERERTPCAETPAEPVDWAFAQRELLEKQGIDMKQEMEQRLQELEDQYRREREEATYLLEQQRLDYESKLEALQKQMDSRYYPEVNEEEEEPEDEVQWTERECELALWAFRKWKWYQFTSLRDLLWGNAIFLKEANAISVELKKKVQFQFVLLTDTLYSPLPPDLLPPEAAKDRETRPFPRTIVAVEVQDQKNGATHYWTLEKLRQRLDLMREMYDRAAEVPSSVVEDCDNVVTGGDPFYDRFPWFRLVGRAFVYLSNLLYPVPLVHRVAIVSEKGEVKGFLRVAVQAISADEEAPDYGSGVRQSGTAKISFDDQHFEKFQSESCPVVGMSRSGTSQEELRIVEGQGQGADAGPSADEVNNNTCSAVPPEGLLDSPEKAALDGPLDTALDHLRLGSTFTFRVTVLQASSISAEYADIFCQFNFIHRHDEAFSTEPLKNTGRGPPLGFYHVQNIAVEVTKSFIEYIKSQPIVFEVFGHYQQHPFPPLCKDVLSPLRPSRRHFPRVMPLSKPVPATKLSTMTRPSPGPCHCKYDLLVYFEICELEANGDYIPAVVDHRGGMPCMGTFLLHQGIQRRITVTLLHETGSHIRWKEVRELVVGRIRNTPETDEALIDPNILSLNILSSGYVHPAQDDRQFLDSDIPRTFYQFEAAWDSSMHNSLLLNRVTPYREKIYMTLSAYIEMENCTQPAVITKDFCMVFYSRDAKLPASRSIRNLFGSGSLRATEGNRVTGVYELSLCHVADAGSPGMQRRRRRVLDTSVAYVRGEENLAGWRPRSDSLILDHQWELEKLSLLQEVEKTRHYLLLREKLETTQRPVPEVLSPASSEDSESRSSSGASSPLSAEGQPSPLEVPNERQRELAVKCLRLLMHTFNREYTHSHVCISASESKLSEMSVTLMRDPSMSPLGAATLTPSSTCPSLIEGRYGATDVRTPQPCSRPASPEPELLPELDSKKTPSPVRATETEKEPQRLLVPDIQEIRVSPIVSKKGYLHFLEPHTAGWAKRFVVVRRPYAYMYNSDKDTVERFVLNLSTAQVEYSEDQQAMLKTPNTFAVCTEHRGILLQANSDKDMHDWLYAFNPLLAGTIRSKLSRRRSAQMRV
notes: KIF1A, endogenous protein of rat brain cytosol; source: endogenous, cytosolic extract of rat brain
For B2, the “stoichiometry N” value in data set [1] came to 2.

B3: KIF1A-3xmCit (natural protein, rat, UniProt F1M4A4 1-1707, looked up)
chain: MAGASVKVAVRVRPFNSREMSRDSKCIIQMSGSTTTIVNPKQPKETPKSFSFDYSYWSHTSPEDINYASQKQVYRDIGEEMLQHAFEGYNVCIFAYGQTGAGKSYTMMGKQEKDQQGIIPQLCEDLFSRINDTTNDNMSYSVEVSYMEIYCERVRDLLNPKNKGNLRVREHPLLGPYVEDLSKLAVTSYNDIQDLMDSGNKARTVAATNMNETSSRSHAVFNIIFTQKRHDAETNITTEKVSKISLVDLAGSERADSTGAKGTRLKEGANINKSLTTLGKVISALAEMDSGPNKNKKKKKTDFIPYRDSVLTWLLRENLGGNSRTAMVAALSPADINYDETLSTLRYADRAKQIRCNAIINEDPNNKLIRELKDEVTRLRDLLYAQGLGDITDTNTVPGGPKLTNALVGMSPSSSLSALSSRAASVSSLHERILFAPGSEEAIERLKETEKIIAELNETWEEKLRRTEAIRMEREALLAEMGVAMREDGGTLGVFSPKKTPHLVNLNEDPLMSECLLYYIKDGVTRVGREDAERRQDIVLSGHFIKEEHCIFRSDSRGGGEAVVTLEPCEGADTYVNGKKVTEPSILRSGNRIIMGKSHVFRFNHPEQARQERERTPCAETPAEPVDWAFAQRELLEKQGIDMKQEMEQRLQELEDQYRREREEATYLLEQQRLDYESKLEALQKQMDSRYYPEVNEEEEEPEDEVQWTERECELALWAFRKWKWYQFTSLRDLLWGNAIFLKEANAISVELKKKVQFQFVLLTDTLYSPLPPDLLPPEAAKDRETRPFPRTIVAVEVQDQKNGATHYWTLEKLRQRLDLMREMYDRAAEVPSSVVEDCDNVVTGGDPFYDRFPWFRLVGRAFVYLSNLLYPVPLVHRVAIVSEKGEVKGFLRVAVQAISADEEAPDYGSGVRQSGTAKISFDDQHFEKFQSESCPVVGMSRSGTSQEELRIVEGQGQGADAGPSADEVNNNTCSAVPPEGLLDSPEKAALDGPLDTALDHLRLGSTFTFRVTVLQASSISAEYADIFCQFNFIHRHDEAFSTEPLKNTGRGPPLGFYHVQNIAVEVTKSFIEYIKSQPIVFEVFGHYQQHPFPPLCKDVLSPLRPSRRHFPRVMPLSKPVPATKLSTMTRPSPGPCHCKYDLLVYFEICELEANGDYIPAVVDHRGGMPCMGTFLLHQGIQRRITVTLLHETGSHIRWKEVRELVVGRIRNTPETDEALIDPNILSLNILSSGYVHPAQDDRQFLDSDIPRTFYQFEAAWDSSMHNSLLLNRVTPYREKIYMTLSAYIEMENCTQPAVITKDFCMVFYSRDAKLPASRSIRNLFGSGSLRATEGNRVTGVYELSLCHVADAGSPGMQRRRRRVLDTSVAYVRGEENLAGWRPRSDSLILDHQWELEKLSLLQEVEKTRHYLLLREKLETTQRPVPEVLSPASSEDSESRSSSGASSPLSAEGQPSPLEVPNERQRELAVKCLRLLMHTFNREYTHSHVCISASESKLSEMSVTLMRDPSMSPLGAATLTPSSTCPSLIEGRYGATDVRTPQPCSRPASPEPELLPELDSKKTPSPVRATETEKEPQRLLVPDIQEIRVSPIVSKKGYLHFLEPHTAGWAKRFVVVRRPYAYMYNSDKDTVERFVLNLSTAQVEYSEDQQAMLKTPNTFAVCTEHRGILLQANSDKDMHDWLYAFNPLLAGTIRSKLSRRRSAQMRV
notes: KIF1A (Kinesin-3 motor), rat, full length; Vector 3xmCit-N1; also called FL; 3xmCit-tagged FL KIF1A; source: COS cells, transfected, in lysate
Consider B3, for which the “stoichiometry N” value in data set [2] came to 2.

B4: KIF1A(1–393)-3xmCit (domain or fragment, rat, UniProt F1M4A4 1-393, looked up)
chain: MAGASVKVAVRVRPFNSREMSRDSKCIIQMSGSTTTIVNPKQPKETPKSFSFDYSYWSHTSPEDINYASQKQVYRDIGEEMLQHAFEGYNVCIFAYGQTGAGKSYTMMGKQEKDQQGIIPQLCEDLFSRINDTTNDNMSYSVEVSYMEIYCERVRDLLNPKNKGNLRVREHPLLGPYVEDLSKLAVTSYNDIQDLMDSGNKARTVAATNMNETSSRSHAVFNIIFTQKRHDAETNITTEKVSKISLVDLAGSERADSTGAKGTRLKEGANINKSLTTLGKVISALAEMDSGPNKNKKKKKTDFIPYRDSVLTWLLRENLGGNSRTAMVAALSPADINYDETLSTLRYADRAKQIRCNAIINEDPNNKLIRELKDEVTRLRDLLYAQGLGDITD
notes: source: COS cells, transfected, in lysate
As to B4, the “stoichiometry N” value in data set [2] turned out to be 2.

B5: KIF1A(1–726)-3xmCit (domain or fragment, rat, UniProt F1M4A4 1-726, looked up)
chain: MAGASVKVAVRVRPFNSREMSRDSKCIIQMSGSTTTIVNPKQPKETPKSFSFDYSYWSHTSPEDINYASQKQVYRDIGEEMLQHAFEGYNVCIFAYGQTGAGKSYTMMGKQEKDQQGIIPQLCEDLFSRINDTTNDNMSYSVEVSYMEIYCERVRDLLNPKNKGNLRVREHPLLGPYVEDLSKLAVTSYNDIQDLMDSGNKARTVAATNMNETSSRSHAVFNIIFTQKRHDAETNITTEKVSKISLVDLAGSERADSTGAKGTRLKEGANINKSLTTLGKVISALAEMDSGPNKNKKKKKTDFIPYRDSVLTWLLRENLGGNSRTAMVAALSPADINYDETLSTLRYADRAKQIRCNAIINEDPNNKLIRELKDEVTRLRDLLYAQGLGDITDTNTVPGGPKLTNALVGMSPSSSLSALSSRAASVSSLHERILFAPGSEEAIERLKETEKIIAELNETWEEKLRRTEAIRMEREALLAEMGVAMREDGGTLGVFSPKKTPHLVNLNEDPLMSECLLYYIKDGVTRVGREDAERRQDIVLSGHFIKEEHCIFRSDSRGGGEAVVTLEPCEGADTYVNGKKVTEPSILRSGNRIIMGKSHVFRFNHPEQARQERERTPCAETPAEPVDWAFAQRELLEKQGIDMKQEMEQRLQELEDQYRREREEATYLLEQQRLDYESKLEALQKQMDSRYYPEVNEEEEEPEDEVQWTERECELALWAFRKWKWY
notes: as for B4
For B5, the “stoichiometry N” value in data set [2] was determined as 2.
